Assays:
CT26-MICA = assay: CT26 metastasis model; type: in vivo, Balb/c mice; conditions: antibody days 1, 2, 7, 14; count day 21
Procedure: (§1) Balb/c wild type mice were injected intravenously with 1×10^6 CT26-MICA, and treated with 7C6-mIgG2b or MPC-11 (isotype) administered intraperitoneally on days 1, 2, 7, and 14. Euthanasia was performed on day 21, followed by lung perfusion with 30% Indian ink through the trachea and fixation in Fekete's fixative. That procedure stains the lungs in black, while the metastases remain white, enabling counting of metastases under a stereomicroscope (24).
as §1, with “stereomicroscope.” for “stereomicroscope (24).”

RMA-S cell lines = assay: 51Cr release assay with murine NK cells against RMA-S cell lines; type: cell-based, mouse
Procedure: Murine NK cells were isolated from the spleen of C57BL/6 Rag1^−/− mice. These cells were enriched by negative selection using a Mouse NK Cell Isolation Kit (130-096-892, Miltenyi Biotech). Cells were then incubated with PE-conjugated anti-NK1.1 and Pacific Blue-conjugated anti-CD3 (Biolegend), and NK cells were sorted using a BD FACS Aria. Purity after sorting was ˜99%. NK cells used for cytotoxicity assays were isolated from mice that had received an intraperitoneal injection of 200 μg Poly(I:C) (InvivoGen) 1 day prior to NK cell isolation.
Target cells were labeled for 1 hour with 100 μCi of ^51[Cr] per 2×10^6 cells in 0.2 ml of media. Subsequently, cells were washed and plated in V-bottom 96-wells plates (5,000 target cells per well). To determine the experimental release, NK cells were added in an equal volume, but at different ratios. […]
For experiments shown in FIGS. 1E, 10, and 13E antibodies were added at the time of the killing assay. […] At the end of the incubation period, plates were centrifuged (2000 rpm, 5 minutes), part of the supernatant was collected, mixed with scintillation fluid, and radioactivity was quantified using a MicroBeta2 reader (Perkin Elmer). Specific killing was calculated using the following formula: 100×(Experimental release−Spontaneous release)/(Maximum release−Spontaneous release).

[1] = system: murine tumor cell lines (B16F10, CT26, Neuro-2a) expressing full-length MICA or MICB; assay: Shed and surface MICA/MICB in murine tumor cell lines transduced with full-length MICA or MICB; type: cell-based, mouse; conditions: B16F10-MICA cells, 24 hours
Description: B16F10, CT26, Neuro-2a, EL4 and RMA-S cell lines were transduced with lentiviral vector pHAGE-CMV-fullEF1a. MICA (allele 009) cDNA or other inserts were placed between NotI and BamHI cloning sites, 3′ to the EF1α promoter and 5′ to the IRES. ZsGreen or luciferase cDNAs were cloned 3′ to the IRES as fluorescence or bioluminescence reporters, respectively. The vector with the ZsGreen reporter was used to compare expression of cDNAs encoding full length MICA, full-length MICB and secreted MICA (Neuro-2a, RMA-S and/or B16F10 cell lines). CT26, EL4 and B16F10 cell lines were transduced with the vector that supported expression of the luciferase reporter. […]
Tumor cells (5×10^4 or 1×10^5 per well, depending on the cell line) were cultured for 24 to 72 hours in 96-well plates (flat-bottom plates for adherent cell lines, U-bottom plates for suspension cell lines). […] MICA or control antibodies were added at different concentrations, and shed MICA/B was then detected in supernatants by ELISA using the Human MICA ELISA kit (Ab59569, Abcam) or Human MICB DuoSet ELISA kit (DY1599, R&D Systems), using the procedures recommended by the manufacturers. […]
MICA and MICB were detected on the cell surface by the PE-conjugated anti-MICA/B antibody (clone 6D4, 320906, Biolegend). […] All samples were acquired in a BD LSR Fortessa flow cytometer, and analyzed by FlowJo V10 software.

B16F10-MICA cells = assay: B16F10 metastasis model in immunocompetent mice; type: in vivo, C57BL/6 mice; conditions: anti-asGM1, anti-NK1.1 or anti-CD8β
Procedure: The B16F10 cells were transduced with the luciferase-based lentiviral vector to express MICA. B16F10-MICA cells (5×10^5) were injected intravenously into C57BL/6 mice through the tail vein. Fewer tumor cells (4×10^5) were injected into NK cell-deficient mice given that the absence of NK cells results in a very large number of metastases. 7C6 or isotype control antibodies (MPC-11 or C1184, BioXcell, which have mIgG2b and mIgG2a isotypes, respectively) were administered intraperitoneally on days 1, 2, 7 and 10 at a dose of 200 μg per mouse. Antibody blockade and depletion were performed as described previously (24). For antibody-based depletion of CD8 T cells or NK cells, 100 μg per mouse of anti-CD8 (5358, BioXcell), anti-NK1.1 (PK136, BioXcell), and anti-asialo(as)GM1 (Wako Chemicals) were given on days −1, 0, and 7. For antibody blockade, anti-NKG2D (HMG2D, BioXcell) or control IgG (MOPC-21) were given at 200 μg per mouse on days −1, 0, 5, 7 and 10. Blood samples were collected at multiple time points by retro-orbital bleeding under isoflurane anesthesia. Mice were euthanized by CO2 inhalation, lungs were perfused with PBS and fixed in formalin solution, and the number of superficial metastases was counted under a stereomicroscope. Histology was performed by the Rodent Histopathology Core of the Dana-Farber/Harvard Cancer Center using lungs that had not been perfused with PBS.
Macrophages were depleted by intravenous injection of 0.2 ml clodronate liposomes (Encapsula NanoSciences LLC). In the humanized and B16F10-MICA metastasis models, 0.2 ml of clodronate liposomes or control liposomes were injected i.v. (on the same day of tumor cell inoculation and then once weekly).

B1: 7C6-mIgG2b: 7C6 with parental murine IgG2b Fc (antibody)
VH: QIQLVQSGPELKKPGETVKVSCKASGYMFTNYAMNWVKQAPEKGLKWMGWINTHTGDPTYADDFKGRIAFSLETSASTAYLQINNLKNEDTATYFCVRTYGNYAMDYWGQGTSVTVSSAKTTAPSVYPLAPVCGDTTGSSVTLGCLVKGYFPEPVTLTWNSGSLSSGVHTFPAVLQSDLYTLSSSVTVTSS
VL: DIQMTQTTSSLSASLGDRVTISCSASQDISNYLNWYQQKPDGTVKLLIYDTSILHLGVPSRFSGSGSGTDYSLTISNLEPEDIATYYCQQYSKFPRTFGGGTTLEIK
CT26-MICA
  activity against CT26-MICA lung metastases: has activity against CT26-MICA tumor cells
RMA-S cell lines; full-length MICA
  murine NK cell-mediated cytotoxicity against tumor cells expressing full-length MICA: enhances NK cell-mediated cytotoxicity
RMA-S cell lines; secreted MICA
  murine NK cell-mediated cytotoxicity against tumor cells that release MICA by exocytosis: not against tumor cells that release MICA by exocytosis
[1]
  ability to inhibit MICA shedding, 7C6 with distinct Fc regions: does not alter the ability of MICA antibody to inhibit MICA shedding
B16F10-MICA cells
  therapeutic activity against lung metastases after NK cell or CD8 T cell depletion: NK cell (anti-asGM1 or anti-NK1.1) but not CD8 T cell (anti-CD8β) depletion abrogated the therapeutic activity

— US12662540B2, “Compositions and methods for inhibition of MICA/B shedding” (DANA-FARBER CANCER INSTITUTE, INC., priority 2017, dated 2026)
